Data published in patent publication US20210292393A1 (published 2021).
Residue numbers refer to the chain shown, from its start.

B1: antibody 310 (antibody, V domains shown)
VH: EVQLVESGGGLVQPGGSLRLSCAASGFTFSSYWMSWVRQAPGKGLEWVANIKQDGSEKYYVDSVKGRFTISRDNAKNSLYLQMNSLRAEDTAVYYCARVGSSSWYFDYWGQGTLVTVSS
VL: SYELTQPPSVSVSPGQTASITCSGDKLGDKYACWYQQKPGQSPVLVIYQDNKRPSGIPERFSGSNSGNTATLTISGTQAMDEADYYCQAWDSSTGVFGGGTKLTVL
B2: antibody 261 (antibody, V domains shown)
VH: QVQLVESGGGVVQPGRSLRLSCAASGFTFSSYAMHWVRQAPGKGLEWVAVISYDGSNKYYADSVKGRFTISRDNSKNTLYLQMNSLRAEDTAVYYCARDEAYYDILTGYINAPKNYYYYGMDVWGQGTTVTVSS
VL: DIQMTQSPSSLSASVGDRVTITCRASQGIRNDLGWYQQKPGKAPKRLIYAASSLQSGVPSRFSGSGSGTEFTLTISSLQPEDFATYYCLQHNSYPFTFGPGTKVDIK
B3: antibody 356 (antibody, V domains shown)
VH: QVQLVQSGAEVKKPGASVKVSCKASGYTFTSYGISWVRQAPGQGLEWMGWISAYHGNTNYAQKLQGRVTMTTDTSTSTAYMELRSLRSDDTAVYYCARVGLWWLGHADAFDIWGQGTMVTVSS
VL: B2 VL with F96L, P100G, D105E
B4: antibody 278 (antibody, V domains shown)
VH: QVQLVQSGAEVKKPGASVKVSCKASGYTFTSYYMHWVRQAPGQGLEWMGIINPSGGSTSYAQKFQGRVTMTRDTSTSTVYMELSSLRSEDTAVYYCARDHSNADPYYDFWSGYYTRTYYYGMDVWGQGTTVTVSS
VL: not shown
B5: antibody 336 (antibody, V domains shown)
VH: QVQLVESGGGVVQPGRSLRLSCAASGFTFSSYAMHWVRQAPGKGLEWVAVISYDGSNKYYADSVKGRFTISRDNSKNTLYLQMNSLRAEDTAVYYCARAQTDYYDSSGWFDYWGQGTLVTVSS
VL: SYELTQPPSVSVSPGQTARITCSGDALPKQYAYWYQQKPGQAPVLVIYKDSERPSGIPERFSGSSSGTTVTLTISGVQAEDEADYYCQSADSSGTPHWVFGGGTKLTVL
B6: antibody 318 (antibody, V domains shown)
VH: QVQLVESGGGVVPPGRSLSLPCAASGFSFSAYAMHWLRQAPGKGLEWVAVISYDGTVKYVADSVRGRFTISRDNSNNTLYLQMTSLRSDDTAVYYCARDLGALAAAPTVYFVHWGQGTLVTVSS
VL: SYVLTQPPSVSVAPGKTATITCAGEDIGRKSVHWYQQKPGQAPVLVIFYYSDRPSGIPDRFSGSVSGNTATLTIGRVEAGDEADYFCQVWDRTTNHVIFGGGTKVTVL
B7: antibody 370 (antibody, V domains shown)
VH: B6 VH with S28T
VL: B6 VL
B8: antibody 298 (antibody, V domains shown)
VH: EVQLVESGGGLVQPGGSLRLSCAASGFTVSSNYMSWVRQAPGKGLEWVSVIYSGGSTYYADSVKGRFTISRDNSKNTLYLQMNSLRAEDTAVYYCAREEGEWEKDYYGMDVWGQGTTVTVSS
VL: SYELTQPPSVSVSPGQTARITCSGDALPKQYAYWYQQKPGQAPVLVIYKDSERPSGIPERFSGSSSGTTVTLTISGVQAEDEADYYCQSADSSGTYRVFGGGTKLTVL
B9: antibody 357 (antibody, V domains shown)
VH: QVQLVQSGAEVKKPGSSVKVSCKASGGTFSSYAISWVRQAPGQGLEWMGRIIPILGIANYAQKFQGRVTITADKSTSTAYMELSSLRSEDTAVYYCARGPIAVAGIGPWFDPWGQGTLVTVSS
VL: QSVLTQPPSVSAAPGQKVTISCSGSSSNIGNNYVSWYQQLPGTAPKLLIYDNNKRPSGIPDRFSGSKSGTSATLGITGLQTGDEADYYCGTWDSSLSAVVFGGGTKLTVL
B10: antibody 297 (antibody, V domains shown)
VH: QVQLVESGGGVVQPGRSLRLSCAASGFTFSSYAMHWVRQAPGKGLEWVAVISYDGSNKYYADSVKGRFTISRDNSKNTLYLQMNSLRAEDTAVYYCARSFRGGYYYGMDVWGQGTTVTVSS
VL: DIQLTQSPSFLSASVGDRVTITCRASQGISSYLAWYQQKPGKAPKLLIYAASTLQSGVPSRFSGSGSGTEFTLTISSLQPEDFATYYCQQLNSYPLFTFGPGTKVDIK
B11: antibody 358 (antibody, V domains shown)
VH: QVQLVESGGGVVQPGRSLRLSCAASGFNLNSYAMHWVRQASGKGLEWVSLMSYDGSIKYYADSVKGRFTVSGDNSRNTLFLQMNSLRPDDSALYYCVRGGVSGPNSFDLWGQGTTVTVSS
VL: DVVMTQSPLSLPVTLGQPASISCRSSQSLVYSDGSTYVNWFQQRPGQSPRRLIYKVSNRDSGVPDRFSGSGSGTDFALKISRVEAEDVGVYYCMQGTHWPVTFGQGTKVEIK
B12: antibody 338 (antibody, V domains shown)
VH: QVQLQESGPGLVKPSETLSLTCAVSGYSISSDYYWGWIRQPPGKGLEWIGSIYHSGSTYYNPSLKSRVTISIDTSKNQFSLKLSSVTAADTAVYYCARDPGNYDILTGIFDYWGQGTLVTVSS
VL: QSALTQPASVSGSPGQSITISCTGTSSDVGVYNYVSWYQQHPGKAPKLMIYDVTNRPSGVSNRFSGSKSGNTASLTISGLQAEDEADYYCSSYTSSSTLAVYVFGTGTKVTVL
B13: antibody 305 (antibody, V domains shown)
VH: QVQLVESGGGVVQPGRSLRLSCAASGFTFSSYAMHWVRQAPGKGLEWVAVISYDGSNKYYADSVKGRFTISRDNSKNTLYLQMNSLRAEDTAVYYCAREQTSYDYVWGTLGAYYYYGMDVWGQGTTVTVSS
VL: SSELTQDPAVSVALGQTVRITCQGDSLRSYYASWYQQKPGQAPVLVIYGKNNRPSGIPDRFSGSSSGNTASLTITGAQAEDEADYYCNSRDSSGNHLVFGGGTKLTVL
B14: antibody 302 (antibody, V domains shown)
VH: QVQLVQSGAEVRKPGASVKVSCKVSGYTLSELSMHWVRQAPGKGLEWMGGFDPEDGERMYAQKFQGRVTMTEDTSTDTAYMELSSLRSEDTAIYYCTTDLSYLWSGKLEPDYWYFALWGRGTLVTVSS
VL: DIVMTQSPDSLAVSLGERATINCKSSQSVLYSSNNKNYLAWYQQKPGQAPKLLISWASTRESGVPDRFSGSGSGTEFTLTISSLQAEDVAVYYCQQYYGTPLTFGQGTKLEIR
B15: antibody 258 (antibody, V domains shown)
VH: QVQLQESGPGLVKPSETLSLTCTVSGGSISSYYWSWIRQPAGKGLEWIGRIYTSGSTNYNPSLKSRVTMSVDTSKNQFSLKLSSVTAADTAVYYCAAGYGSIDYWGQGTLVTVSS
VL: not shown
B16: antibody 311 (antibody, V domains shown)
VH: QVQLQESGPGLVKPSETLSLTCTVSGYSISSGYYWGWIRQPPGKGLEWIGSIYHSGSTYYNPSLKSRVTISVDTSKNQFSLKLSSVTAADTAVYYCAREETLGSSWYESYIDYWGQGTLVTVSS
VL: SYVLTQPPSVSVAPGKTARITCGGNNIGSKSVHWYQQKPGQAPVLVIYYDSDRPSGIPERFSGSNSGNTATLTISRVEAGDEADYYCQVWDSSSDHPRVFGGGTKLTVL
B17: antibody 354 (antibody, V domains shown)
VH: QVQLVESGGGVVQPGRSLRLSCAASGFTFSSYAMHWVRQAPGKGLEWVAVISYDGSNKYYADSVKGRFTISRDNSKNTLYLQMNSLRAEDTAVYYCARDRPYYYGSGIPGYYGMDVWGQGTTVTVSS
VL: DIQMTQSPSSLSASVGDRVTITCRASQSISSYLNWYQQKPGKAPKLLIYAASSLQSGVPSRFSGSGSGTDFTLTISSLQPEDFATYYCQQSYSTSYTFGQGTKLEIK
B18: antibody 308 (antibody, V domains shown)
VH: QLQLQESGPGLVKPSETLSLTCSVSGGSISSSSYHWGWIRQPPGKGLEWIGSIYYSGSTYYNPSLKSRVTISVDTSKNQFSLKLRSVTAADTAVYYCAGLRVVITFGGVIPKGGAFDIWGQGTMVTVSS
VL: QSALTQPASVSGSPGQSITISCTGTSSDVGGYNYVSWYQQHPGKAPKLMIYDVSNRPSGVSNRFSGSKSGNTASLTISGLQAEDEADYYCSSYTSSSTVVFGGGTKLTVL
B19: antibody 307 (antibody, V domains shown)
VH: QVQLVESGGGVVQPGRSLRLSCAASGFTFSSYGMHWVRQAPGKGLEWVAVIWYDGSNKYYADSVKGRFTISRDNSKNTLYLQMNSLRAEDTAVYYCAKGYTWDYYYYGMDVWGQGTTVTVSS
VL: not shown
B20: antibody 353 (antibody, V domains shown)
VH: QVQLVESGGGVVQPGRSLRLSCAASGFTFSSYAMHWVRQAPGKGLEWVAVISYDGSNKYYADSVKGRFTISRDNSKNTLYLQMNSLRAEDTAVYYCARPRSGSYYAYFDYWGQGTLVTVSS
VL: DIQMTQSPSSLSASVGDRVTITCRASQGISNYLAWFQQKPGKAPKSLIYAASSLQSGVPSKFSGSGSGTDFTLTISSLQPEDFATYYCQQYNSYPPTFGGGTKVEIK
B21: antibody 330 (antibody, V domains shown)
VH: QVQLVESGGGVVQPGRSLRLSCAASGFTFSSYAMHWVRQAPGKGLEWVAVISYDGSNKYYADSVKGRFTISRDNSKNTLYLQMNSLRAEDTAVYYCARDFQYYDFWSGYLTVSSPTSYYGMDVWGQGTTVTVSS
VL: NFMLTQPHSVSESPGKTVTISCTGSSGSIASNYVQWYQQRPGSAPTTVIYEDNQRPSGVPDRFSGSIDSSSNSASLTISGLKTEDEADYYCQSYDSSNVVFGGGTKLTVL
B22: antibody 277 (antibody, V domains shown)
VH: QVQLVESGGGVVQPGRSLRLSCAASGFTFSSYAMHWVRQAPGKGLEWVAVISYDGSNTYYADSVKGRFTISRDNSKNTLYLQMNSLRAEDTAVYYCARPYSGSYFNWFDPWGQGTLVTVSS
VL: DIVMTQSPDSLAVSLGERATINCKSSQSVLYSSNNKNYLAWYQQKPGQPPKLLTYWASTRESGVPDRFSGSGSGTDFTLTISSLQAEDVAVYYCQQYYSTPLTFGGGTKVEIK
B23: antibody 313 (antibody, V domains shown)
VH: B22 VH with T58K, P99G, Y100L, S101G, F105Y, N106S, W107L, P110Y
VL: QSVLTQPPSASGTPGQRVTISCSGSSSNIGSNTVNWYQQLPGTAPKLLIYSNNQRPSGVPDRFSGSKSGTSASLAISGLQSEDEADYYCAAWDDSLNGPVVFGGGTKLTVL
B24: antibody 291 (antibody, V domains shown)
VH: B10 VH with S99A, F100S, R101G, G103S, Y105F, Y106G
VL: QSALTQPASVSGSPGQSITISCTGTSSDVGGYNYVSWYQQHPGKAPKLMIYEVSNRPSGVSNRFSGSKSGNTASLTISGLQAEDEADYYCSSYTSSSTLYVFGTGTKVTVL

Molecular target: SARS-CoV-2 spike (S) protein (SARS-CoV-2, UniProt P0DTC2 14-1208)

| Binder | Kd [nM] | koff [s⁻¹] | kon [M⁻¹ s⁻¹] |
| --- | --- | --- | --- |
| B1 | 0.532 | 6.43e-05 | 121000 |
| B2 | 5.37 | 0.000695 | 129000 |
| B3 | 3.65 | 9.66e-05 | 26500 |
| B4 | 4.78 | 0.000862 | 201000 |
| B5 | 1.11 | 0.00021 | 190000 |
| B6 | 11.1 | 0.0017 | 152000 |
| B7 | 5.55 | 0.000986 | 178000 |
| B8 | 0.0225 | 1.34e-05 | 597000 |
| B9 | 0.837 | 6.53e-05 | 78000 |
| B10 | 1.6 | 0.000127 | 79800 |
| B11 | 1.69 | 0.000487 | 289000 |
| B12 | 0.882 | 4.43e-05 | 50200 |
| B13 | 13.8 | 0.001 | 72600 |
| B14 | 0.726 | 7.63e-05 | 105000 |
| B15 | 0.996 | 8.36e-05 | 84000 |
| B16 | 19.1 | 0.000407 | 21300 |
| B17 | 43.6 | 0.00179 | 41100 |
| B18 | 0.495 | 6.89e-05 | 139000 |
| B19 | 17 | 0.00171 |  |
| B20 | 0.0601 | 4.09e-05 | 680000 |
| B21 | 9.54 | 0.00073 | 76500 |
| B22 | 0.204 | 6.24e-05 | 305000 |
| B23 | 0.0975 | 4.89e-05 | 502000 |
| B24 | 0.117 | 5.43e-05 | 464000 |
